The RNAGym collection of RNA variant scans (doi:10.7554/elife.80360)

B1: Hairpin Ribozyme (parent)
chain: GUCCUCUUUCACGUGCGCGUGAAAGAGAGAAGUGAACCAGAGAAACACACGUUGUGGUAUAUUACCUGGUA

Variants of: B1
Experiment: self-cleavage, relative activity (ratio to wild type); higher = more cleavage; co-transcriptional

Which self-cleavage does the source give for GUCCUCUUUCACGUGCGCGUGAAUGAGAGAAGUGAACCAAAGAAACACACGUUGUGGUAUAUUACCUGGUA [A24U G40A] here?
Its self-cleavage is 0.281.

Which self-cleavage does the source give for GUCCUCUUUCACGUGCGCGUGAAUGAGAGAAGUGAACCAUAGAAACACACGUUGUGGUAUAUUACCUGGUA [A24U G40U] here?
Its self-cleavage is 0.187.

With GUCCUCUUUCACGUGCGCGUGAAUGAGAGAAGUGAACCAGAGAAACACACUUUGUGGUAUAUUACCUGGUA [A24U G51U] as the variant, how does the self-cleavage read?
Its self-cleavage is 0.78.

Which self-cleavage does the source give for GUCCUCUUUCACGUGCGCGUGAAUGAGAGAAGUGAACCAGAGAAACACACAUUGUGGUAUAUUACCUGGUA [A24U G51A] here?
Its self-cleavage is 0.751.

Which self-cleavage does the source give for GUCCUCUUUCACGUGCGCGUGAAUGAGAGAAGUGAACCAGAGAAACACACGUUGUUGUAUAUUACCUGGUA [A24U G56U] here?
The self-cleavage was 0.232.

Which self-cleavage does the source give for GUCCUCUUUCACGUGCGCGUGAAUGAGAGAAGUGAACCAGAGCAACACACGUUGUGGUAUAUUACCUGGUA [A24U A43C] here?
Its self-cleavage is 0.174.

For GUCCUCUUUCACGUGCGCGUGAAUGAGAGAAGUGAACCAGAGAAACACACGUUCUGGUAUAUUACCUGGUA [A24U G54C], which self-cleavage is on record?
The self-cleavage was 0.423.

For GUCCUCUUUCACGUGCGCGUGAAUGAGAGAAGUGAACCAGAGAAACACACGUUAUGGUAUAUUACCUGGUA [A24U G54A], which self-cleavage is on record?
The self-cleavage was 0.472.

For GUCCUCUUUCACGUGCGCGUGAAUGACAGAAGUGAACCAGAGAAACACACGUUGUGGUAUAUUACCUGGUA [A24U G27C], which self-cleavage is on record?
The self-cleavage was 0.194.

For GUCCUCUUUCACGUGCGCGUGAAUGAGAGAACUGAACCAGAGAAACACACGUUGUGGUAUAUUACCUGGUA [A24U G32C], which self-cleavage is on record?
Its self-cleavage is 0.114.

Which self-cleavage does the source give for GUCCUCUUUCACGUGCGCGUGAAUGAGAGAAAUGAACCAGAGAAACACACGUUGUGGUAUAUUACCUGGUA [A24U G32A] here?
Its self-cleavage is 0.15.

For GUCCUCUUUCACGUGCGCGUGAAUGAGAGAAGUGAACCAGAGAUACACACGUUGUGGUAUAUUACCUGGUA [A24U A44U], which self-cleavage is on record?
Its self-cleavage is 0.123.

Which self-cleavage does the source give for GUCCUCUUUCACGUGCGCGUGAAUGAGAGAAGUGAACCAGAGAAACACAAGUUGUGGUAUAUUACCUGGUA [A24U C50A] here?
The self-cleavage was 0.346.

Which self-cleavage does the source give for GUCCUCUUUCACGUGCGCGUGAAUGAGAGAAGUGAACCAGAGAAACACACGCUGUGGUAUAUUACCUGGUA [A24U U52C] here?
Its self-cleavage is 0.723.

Which self-cleavage does the source give for GUCCUCUUUCACGUGCGCGUGAAUGAGAGAAGUGAACCAGAGAAGCACACGUUGUGGUAUAUUACCUGGUA [A24U A45G] here?
The self-cleavage was 0.241.

With GUCCUCUUUCACGUGCGCGUGAAUGAGAGAAGUGAACCAGAUAAACACACGUUGUGGUAUAUUACCUGGUA [A24U G42U] as the variant, how does the self-cleavage read?
The self-cleavage was 0.342.

Which self-cleavage does the source give for GUCCUCUUUCACGUGCGCGUGAAUGAGAGAAGUGAACCAGACAAACACACGUUGUGGUAUAUUACCUGGUA [A24U G42C] here?
Its self-cleavage is 0.394.

For GUCCUCUUUCACGUGCGCGUGAAUGAGAGAAGUGAACCAGAGAAACAAACGUUGUGGUAUAUUACCUGGUA [A24U C48A], which self-cleavage is on record?
Its self-cleavage is 0.0466.

With GUCCUCUUUCACGUGCGCGUGAAUGAGAGAAGUGAACUAGAGAAACACACGUUGUGGUAUAUUACCUGGUA [A24U C38U] as the variant, how does the self-cleavage read?
Its self-cleavage is 0.471.

For GUCCUCUUUCACGUGCGCGUGAAUGAGAGAAGUGAACGAGAGAAACACACGUUGUGGUAUAUUACCUGGUA [A24U C38G], which self-cleavage is on record?
Its self-cleavage is 0.135.

With GUCCUCUUUCACGUGCGCGUGAAUGAGAGAAGUGAACCAGAGAAACACACGUUGUGGUAUCUUACCUGGUA [A24U A61C] as the variant, how does the self-cleavage read?
Its self-cleavage is 0.0949.

With GUCCUCUUUCACGUGCGCGUGAAUGAGAGAAGUGAACCAGAGAAACACACGUGGUGGUAUAUUACCUGGUA [A24U U53G] as the variant, how does the self-cleavage read?
The self-cleavage was 0.674.

For GUCCUCUUUCACGUGCGCGUGAAUGAGAGAAGUGAACCAGAGAAACACACGUUGUGGUAUAUUACCUAGUA [A24U G68A], which self-cleavage is on record?
The self-cleavage was 0.361.

With GUCCUCUUUCACGUGCGCGUGAAUGAGAGAAGUGAACCAGAGAAACACACGUUGUGGUAUAUUACCUCGUA [A24U G68C] as the variant, how does the self-cleavage read?
Its self-cleavage is 0.0904.

For GUCCUCUUUCACGUGCGCGUGAAUGAGAGAAGUGAACCAGAGAAACACACGUUGUGGUAUAUUACCUGGUG [A24U A71G], which self-cleavage is on record?
The self-cleavage was 1.11.

Which self-cleavage does the source give for GUCCUCUUUCACGUGCGCGUGAAUGAGAGAAGUGAACCAGAGAAACACACGUUGUGGUAUAUUUCCUGGUA [A24U A64U] here?
Its self-cleavage is 0.0963.

With GUCCUCUUUCACGUGCGCGUGAAUGAGAGAAGUGAACCAGAGAAACACACGUUGUGGUAUAUUCCCUGGUA [A24U A64C] as the variant, how does the self-cleavage read?
Its self-cleavage is 0.142.

With GUCCUCUUUCACGUGCGCGUGAAUGAGAGAAGUGAACCAGAGAAACACACGUUGUGCUAUAUUACCUGGUA [A24U G57C] as the variant, how does the self-cleavage read?
The self-cleavage was 0.181.

With GUCCUCUUUCACGUGCGCGUGAAUGAGAGAAGUGAACCAGAGAAACACACGUUGUGGUAUAUUAUCUGGUA [A24U C65U] as the variant, how does the self-cleavage read?
Its self-cleavage is 0.39.

With GUCCUCUUUCACGUGCGCGUGAAUGAGAGAAGUGAACCAGAGAAACACACGUUGUGGUAUAUUAACUGGUA [A24U C65A] as the variant, how does the self-cleavage read?
The self-cleavage was 0.734.

Which self-cleavage does the source give for GUCCUCUUUCACGUGCGCGUGAAUGAGAUAAGUGAACCAGAGAAACACACGUUGUGGUAUAUUACCUGGUA [A24U G29U] here?
Its self-cleavage is 0.0631.

With GUCCUCUUUCACGUGCGCGUGAAUGAGAAAAGUGAACCAGAGAAACACACGUUGUGGUAUAUUACCUGGUA [A24U G29A] as the variant, how does the self-cleavage read?
The self-cleavage was 0.146.

With GUCCUCUUUCACGUGCGCGUGAAUGAGAGAAGUGAACCAGAGAAACACGCGUUGUGGUAUAUUACCUGGUA [A24U A49G] as the variant, how does the self-cleavage read?
The self-cleavage was 0.533.

For GUCCUCUUUCACGUGCGCGUGAAUGAGAGAAGUGAACCAGAGAAACACACGUUGUGGUAUAUUACCUGAUA [A24U G69A], which self-cleavage is on record?
The self-cleavage was 0.327.

Which self-cleavage does the source give for GUCCUCUUUCACGUGCGCGUGAAUGAGAGAAGUGAACCAGAGAAACACACGUUGCGGUAUAUUACCUGGUA [A24U U55C] here?
The self-cleavage was 0.11.

For GUCCUCUUUCACGUGCGCGUGAAUGAGAGAAGUGAACCAGAGAAACACACGUUGGGGUAUAUUACCUGGUA [A24U U55G], which self-cleavage is on record?
The self-cleavage was 0.242.

With GUCCUCUUUCACGUGCGCGUGAAUGAGAGAAGUGAACCAGAGAAACACACGUUGAGGUAUAUUACCUGGUA [A24U U55A] as the variant, how does the self-cleavage read?
Its self-cleavage is 0.186.

Which self-cleavage does the source give for GUCCUCUUUCACGUGCGCGUGAAUGAGAGAAGUGAACCAGAGAAACACACGUUGUGGUUUAUUACCUGGUA [A24U A59U] here?
The self-cleavage was 0.185.
